According to US20220305056A1 (Janssen / Centocor, published 2022):
Ends that are not written are not given here.

Legend:
[1] = molecular target: T1, (G4S)4 peptide (biotinylated); experiment: bio-layer interferometry, biotinylated peptide on streptavidin sensor
T1 construct: Biotinylated peptide immobilised on streptavidin biosensors for BLI; also called WT (G4S)4 peptide linker; WT G4S linker
T1 peptide: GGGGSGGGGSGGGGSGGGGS
Description: (§1) All reactions were performed at 25° C. in 1× kinetics buffer (ForteBio; Fremont, Calif.). Data were collected with Octet Data Acquisition program (ForteBio) and analyzed using Octet Data Analysis program (ForteBio).

[2] = molecular target: T2, immobilized scFv containing a G4S linker; experiment: ELISA and flow cytometry (FIGS. 2 and 3)
T2 construct: Antigen coated on the ELISA plate at 0.1 ug/mL
Description: Plates were washed 3 times with PBS. […] Plates were washed 3 times with PBS. […] Optical density at 450 nm was measured on (SpectraMax M5, Molecular Devices; San Jose, Calif.). Data was analyzed in GraphPad Prism software (Graphpad).
HEK293-T cells were cultured in standard DMEM with (Dulbecco's Modified Eagle's Medium Components comprising glucose, L-glutamine, NaHCO₃, and phenol red). Transfection of cells with mRNA for linker containing scFv protein constructs was carried out following manufacturer's protocol (MessengerMax, Invitrogen). 5 μg of IVT synthesized mRNA was transfected in HEK293-T cells at a density of 1×10⁶ cells/mL and incubated 24 hours prior to flow cytometry analysis. Cells were added to 96 well U bottom plates at a concentration of 100,000 cells/well. Plates were spun at 300 g for 3 minutes and supernatant was discarded. Sytox green (Invitrogen) Live/Dead stain was added to the cells and incubated for 10 minutes at room temperature in a dark chamber. The cells were washed twice with PBS, and the supernatant was discarded. A 12 point 1:3 serial dilution with a starting concentration of 100 nM of primary antibody was prepared. The dilution series was added to cells and incubated for 1 hour at 4° C. in the dark. Plates were spun at 300 g for 3 minutes, the supernatants discarded, and cells washed twice with FACS running buffer (Becton Dickinson (BD), Franklin Lakes, N.J.). […]

[3] = molecular target: T3, SEQ ID NO 53 (not fully specified; also: biotinylated); experiment: bio-layer interferometry, truncated peptide panel
T3 construct: Truncation variant of the (G4S)4 linker; also called truncated G4S peptide
T3 peptide: GGGGSGGGGSGG
Description: as §1

[4] = molecular target: T4, SEQ ID NO 47 (also: biotinylated); experiment: bio-layer interferometry, truncated peptide panel
T4 construct: Truncation variant of the (G4S)4 linker; also called truncated G4S peptide
T4 peptide: GGGGSGGGGSGGGGSGGG
Description: as §1

[5] = molecular target: T5, SEQ ID NO 48 (also: biotinylated); experiment: bio-layer interferometry, truncated peptide panel
T5 construct: Truncation variant of the (G4S)4 linker; also called truncated G4S peptide
T5 peptide: GGGGSGGGGSGGGGSGG
Description: as §1

[6] = molecular target: T6, SEQ ID NO 46 (also: biotinylated); experiment: bio-layer interferometry, truncated peptide panel
T6 construct: Truncation variant of the (G4S)4 linker; also called truncated G4S peptide
T6 peptide: GGGGSGGGGSGGGGSGGGG
Description: as §1

[7] = molecular target: T7, SEQ ID NO 49 (also: biotinylated); experiment: bio-layer interferometry, truncated peptide panel
T7 construct: Truncation variant of the (G4S)4 linker; also called truncated G4S peptide
T7 peptide: GGGGSGGGGSGGGGSG
Description: as §1

[8] = molecular target: T8, 10-mer peptide (SEQ ID NO:55) (also: biotinylated); experiment: bio-layer interferometry, truncated peptide panel
T8 construct: Truncation variant of the (G4S)4 linker; smallest linker detected by CEN-63-13; also called smallest linker
T8 peptide: GGGGSGGGGS
Description: as §1

[9] = molecular target: T9, SEQ ID NO 52 (also: biotinylated); experiment: bio-layer interferometry, truncated peptide panel
T9 construct: Truncation variant of the (G4S)4 linker; also called truncated G4S peptide
T9 peptide: GGGGSGGGGSGGG
Description: as §1

[10] = molecular target: T10, SEQ ID NO 51 (also: biotinylated); experiment: bio-layer interferometry, truncated peptide panel
T10 construct: Truncation variant of the (G4S)4 linker; also called truncated G4S peptide
T10 peptide: GGGGSGGGGSGGGG
Description: as §1

[11] = molecular target: T11, SEQ ID NO 50 (not fully specified; also: biotinylated); experiment: bio-layer interferometry, truncated peptide panel
T11 construct: Truncation variant of the (G4S)4 linker; also called truncated G4S peptide; L6
T11 peptide: GGGGSGGGGSGGGGS
Description: as §1

[12] = molecular target: T2, immobilized scFv containing a G4S linker; experiment: ELISA, scFv coated on the plate, anti-human Fc HRP detection
Description: MaxiSorb 96 plates (Nunc; Roskilde, Denmark) were coated with antigen at 0.1 μg/mL concentration and incubated overnight at 4° C. Plates were washed 3 times with PBS and blocked with PBS plus 5% milk powder for 1 hour at room temperature. Plates were washed 3 times with PBS. […] Plates were washed 3 times with PBS. […] Optical density at 450 nm was measured on (SpectraMax M5, Molecular Devices; San Jose, Calif.). Data was analyzed in GraphPad Prism software (Graphpad).

[13] = molecular target: T12, cell-surface scFv with a G4S linker (CAR-T construct on transfected HEK293T cells); experiment: flow cytometry on HEK293T cells transfected with CAR-T constructs, fluorescent anti-human Fc detection
T12 construct: also called cell surface antigen; linker containing scFv protein construct
Description: HEK293-T cells were cultured in standard DMEM with (Dulbecco's Modified Eagle's Medium Components comprising glucose, L-glutamine, NaHCO₃, and phenol red). Transfection of cells with mRNA for linker containing scFv protein constructs was carried out following manufacturer's protocol (MessengerMax, Invitrogen). 5 μg of IVT synthesized mRNA was transfected in HEK293-T cells at a density of 1×10⁶ cells/mL and incubated 24 hours prior to flow cytometry analysis. Cells were added to 96 well U bottom plates at a concentration of 100,000 cells/well. Plates were spun at 300 g for 3 minutes and supernatant was discarded. Sytox green (Invitrogen) Live/Dead stain was added to the cells and incubated for 10 minutes at room temperature in a dark chamber. The cells were washed twice with PBS, and the supernatant was discarded. A 12 point 1:3 serial dilution with a starting concentration of 100 nM of primary antibody was prepared. The dilution series was added to cells and incubated for 1 hour at 4° C. in the dark. Plates were spun at 300 g for 3 minutes, the supernatants discarded, and cells washed twice with FACS running buffer (Becton Dickinson (BD), Franklin Lakes, N.J.). Secondary antibody (Anti human Fc, Biolegend; San Diego, Calif.) was diluted in FACS buffer according to manufacturer's protocol. 50 μl of secondary antibody was added to the cells and incubated for 30 minutes at 4° C. in the dark. […]

[14] = molecular target: T13, H3-23/L1-39 scFv with (G4S)4 peptide linker; experiment: bio-layer interferometry
T13 construct: also called inert scFv

B1: CEN-63-13 mAb (antibody, human IgG1, V domains shown)
VH: QSVKESGGRLVTPGTPLTLTCTVSGFSLSSNAIDWVRQAPGKGLEWIGILGRSGSTYYASWAKGRFTISRTSSTTVDLKITSPTTEDTATYFCARHFYLWGPGTLVTVSS
VL: AQVLTQTASPVSAAVGGTVTINCQASQSVYSNYLSWYQQKPGQPPKLLMATTSTLEPGVPSRFKGSGSGTQFTLTISDLECDDAATYYCAGGYSVDIWVFGGGTEVVVKR
notes: also called CEN-63 C13; CEN-63 C13 anti-G4S antibody
Kd [1]: 3.6 nM
Kd [2]: 0.57 nM
fold decrease in binding affinity compared to WT G4S linker [3]: 2 fold
fold decrease in binding affinity compared to WT G4S linker [4]: 2 fold
fold decrease in binding affinity compared to WT G4S linker [5]: 2 fold
fold decrease in binding affinity compared to WT G4S linker [6]: 2 fold
fold decrease in binding affinity compared to WT G4S linker [7]: 2 fold
fold decrease in binding affinity compared to WT G4S linker [8]: 6 fold
fold decrease in binding affinity compared to WT G4S linker [9]: 2 fold
fold decrease in binding affinity compared to WT G4S linker [10]: 2 fold
fold decrease in binding affinity compared to WT G4S linker [11]: 2 fold
EC50 [12]: 0.57 nM
EC50 [13]: 0.78 nM
Kd [14]: 8.1 nM
